# Several values for one entry are separate records, joined by “and”; a condition that tells them apart may be missing. Identical values can stand only once.
# B1: enolase peptide 181YGAEIFHALKKILKS195 (peptide)
# peptide: YGAEIFHALKKILKS
# notes: residues 181-195 of the enolase of S. pneumoniae; one 15mer of the peptide spot array; Synthesised as a spot and held on the cellulose membrane; also called core peptide of region no; source: synthetic peptide, spot on an amino pegylated cellulose membrane
# Experiments:
# [1] = target: recombinant enolase of S. pneumoniae serotype 2 (ATCC 11733) (Streptococcus pneumoniae serotype 2 (ATCC 11733)) (UniProt Q97QS2); assay: SPR; rEno immobilised by amine coupling on CM5 chip (BIAcore T200), VWF or A domains as analyte, PBS pH 7.4 with 0.05% Tween 20, 25°C, 10 μl/min, 1:1 Langmuir model
# [2] = target: recombinant enolase protein (rEno) of S. pneumoniae serotype 2 (ATCC 11733) (Streptococcus pneumoniae serotype 2 (ATCC 11733)) (UniProt Q04KG2); assay: SPR; rEno immobilised by amine coupling on CM5 chips (BIAcore T200); PBS pH 7.4 with 0.05% Tween 20, 25°C, 10 µl/min; analytes plasma VWF 0.625-10.0 µg/ml or VWF A1 domain 0.0612-1.0 µg/ml; 1:1 Langmuir model; values of the single independent kinetic runs
# [3] = target: T1, human plasma von Willebrand factor (human, UniProt P04275 764-2813); assay: peptide or protein array; 141 overlapping 15mer peptides of enolase (offset three) on cellulose membrane, overlay with 2.0 μg/ml VWF, detected with anti-VWF antibody; conditions: both partners purified
# T1 construct: von Willebrand factor, human, derived from plasma; called 'full length VWF' in the SPR methods, as against the single A domains; Glycoprotein from plasma that circulates as multimers; also called VWF; plasma VWF; source: bought: Merck Chemicals (human plasma VWF)
# Chain of recombinant enolase protein (rEno) of S. pneumoniae serotype 2 (ATCC 11733) (Streptococcus pneumoniae serotype 2 (ATCC 11733)) (Q04KG2 whole entry, the tested form may be a part): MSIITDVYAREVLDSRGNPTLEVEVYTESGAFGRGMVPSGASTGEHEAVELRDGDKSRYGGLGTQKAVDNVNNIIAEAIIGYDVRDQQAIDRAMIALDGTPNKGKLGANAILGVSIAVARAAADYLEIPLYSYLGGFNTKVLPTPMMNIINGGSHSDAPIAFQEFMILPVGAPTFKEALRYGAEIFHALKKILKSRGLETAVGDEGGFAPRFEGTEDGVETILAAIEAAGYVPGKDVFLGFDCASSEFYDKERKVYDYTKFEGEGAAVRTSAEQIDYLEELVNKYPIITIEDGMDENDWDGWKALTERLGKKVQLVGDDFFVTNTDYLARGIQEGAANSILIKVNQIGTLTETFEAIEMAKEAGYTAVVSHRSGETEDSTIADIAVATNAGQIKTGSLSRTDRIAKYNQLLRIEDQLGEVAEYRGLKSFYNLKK
# Chain of recombinant enolase of S. pneumoniae serotype 2 (ATCC 11733) (Streptococcus pneumoniae serotype 2 (ATCC 11733)) (Q97QS2 whole entry, the tested form may be a part): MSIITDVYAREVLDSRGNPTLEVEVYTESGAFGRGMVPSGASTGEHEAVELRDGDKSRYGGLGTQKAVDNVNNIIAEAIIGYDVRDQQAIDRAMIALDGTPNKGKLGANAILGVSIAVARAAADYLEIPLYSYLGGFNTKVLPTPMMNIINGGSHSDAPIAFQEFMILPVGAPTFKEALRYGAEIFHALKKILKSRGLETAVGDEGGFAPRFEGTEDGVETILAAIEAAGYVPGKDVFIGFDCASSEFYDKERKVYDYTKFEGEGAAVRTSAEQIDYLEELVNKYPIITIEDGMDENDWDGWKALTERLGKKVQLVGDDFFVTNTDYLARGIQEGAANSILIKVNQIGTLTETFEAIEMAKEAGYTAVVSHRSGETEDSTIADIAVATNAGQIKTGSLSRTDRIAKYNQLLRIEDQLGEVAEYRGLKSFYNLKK
molecule,measurement,setting,value
recombinant VWF domain A1 (domain or fragment),Kd,[1],0.208 nM
recombinant VWF domain A1 (from UniProt P04275 23-2813) (domain or fragment),Kd,[2],2.18 nM and 1.79 nM and 0.585 nM
same,koff,[2],0.00126 s⁻¹ and 0.00175 s⁻¹ and 0.0013 s⁻¹
B1,binding result,[3],binds
